The experiment has as its target T1, endogenous secreted MMP-2 in conditioned media of SYF and SYF+c-Src mouse embryonic fibroblast cells (mouse (endogenous protein of mouse …, UniProt P33434 30-662, limits assumed)).
T1 construct: also called endogenous secreted MMP-2 in SYF CM
The experiment can be described thus: Ni-NTA pulldown from SYF CM, immunoblot.

T1 sequence (P33434 30-662 limits assumed): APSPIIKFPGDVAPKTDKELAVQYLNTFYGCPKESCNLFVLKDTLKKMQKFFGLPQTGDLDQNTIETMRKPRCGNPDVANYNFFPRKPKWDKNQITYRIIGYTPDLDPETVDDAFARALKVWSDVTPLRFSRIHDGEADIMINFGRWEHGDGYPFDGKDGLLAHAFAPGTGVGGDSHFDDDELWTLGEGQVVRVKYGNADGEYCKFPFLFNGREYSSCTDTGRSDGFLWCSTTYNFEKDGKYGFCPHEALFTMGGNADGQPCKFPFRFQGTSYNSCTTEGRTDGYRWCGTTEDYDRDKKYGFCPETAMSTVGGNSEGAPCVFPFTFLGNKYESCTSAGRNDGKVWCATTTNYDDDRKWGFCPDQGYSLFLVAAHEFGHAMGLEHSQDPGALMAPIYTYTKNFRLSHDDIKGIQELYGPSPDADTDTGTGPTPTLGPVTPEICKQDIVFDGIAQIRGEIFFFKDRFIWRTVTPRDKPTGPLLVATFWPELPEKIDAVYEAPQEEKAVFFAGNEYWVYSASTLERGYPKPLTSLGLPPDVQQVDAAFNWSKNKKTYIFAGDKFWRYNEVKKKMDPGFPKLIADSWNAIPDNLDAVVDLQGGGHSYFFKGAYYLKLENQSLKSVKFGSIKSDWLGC
Protocol: Pulldown and co-pulldown experiments were performed from CM and immunoblots were followed. […] Data represent three independent experiments.
Equal amounts of isolated cell extract proteins were incubated with HisPur Ni-NTA Resin (ThermoScientific) for 2 hours at 4° C. Immunopellets were washed 4 times with fresh lysis buffer (20 mM HEPES pH 7.0, 100 mM NaCl, 1 mM MgCl2, 0.1% NP40, protease inhibitor cocktail (Roche) and PhosSTOP (Roche)). […] Pulldowns were also performed using conditioned media concentrated ˜10× using Amicon Ultra 10K centrifugal filters (Millipore) according to the manufacturer's protocol. HiPur Ni-NTA Resin was used to pulldown His6-tagged TIMP-2 from concentrated conditioned media. Briefly, HisPur Ni-NTA Resin was washed 3 times by vortexing resin with 0.1% NP40 lysis buffer and pipetting off supernatant. Concentrated conditioned media was combined with washed HisPur Ni-NTA Resin, and placed on rotator at 4° C. for 1 hour. Wash step was repeated 4 times with 1% NP40 buffer+150 mM NaCl to reduce non-specific binding of proteins to resin. 5× protein loading buffer was added to resin and boiled for 5 minutes.

B1: TIMP-2 Y62F/Y90F/Y165F-His6 (other)
chain: CSCSPVHPQQAFCNADVVIRAKAVSEKEVDSGNDIFGNPIKRIQYEIKQIKMFKGPEKDIEFIFTAPSSAVCGVSLDVGGKKEYLIAGKAEGDGKMHITLCDFIVPWDTLSTTQKKSLNHRYQMGCECKITRCPMIPCFISSPDECLWMDWVTEKNINGHQAKFFACIKRSDGSCAWYRGAAPPKQEFLDIEDPHHHHHH
notes: also called TF; triple F mutant
With B1, the binding result is reported as “no binding”.
